For the data set, the target named is T1, MaNCP1-N (N-terminal C2H2 zinc finger cluster of MaNCP1) (Metarhizium acridum (CQMa102)) (UniProt E9E378).
T1 sequence: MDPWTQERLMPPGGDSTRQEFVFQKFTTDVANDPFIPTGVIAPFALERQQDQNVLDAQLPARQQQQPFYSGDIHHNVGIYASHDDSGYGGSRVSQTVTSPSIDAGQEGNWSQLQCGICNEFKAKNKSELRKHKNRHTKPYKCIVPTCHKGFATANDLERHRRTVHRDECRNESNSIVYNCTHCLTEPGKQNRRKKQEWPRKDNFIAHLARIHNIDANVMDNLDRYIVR
The data set is described as follows: EMSA. To be noted: Chemiluminescent EMSA kit (Beyotime), biotin-labeled probe; buffer, salt, pH and temperature not stated.

Consider “AAAGATCAATAGGAGCTCAGACGACGAGATCGGATGGTGGGGTTCCGGGCAGGCGCAGGCGCGGCGGAAGTCGGCTAGCAGGAGCAACCCAATTGATAAGAGCTCAAGTG (double strand) [MaNmrA promoter probe]”, for which the binding entry is given as “binds”.

The values are drawn from article PMC9241723.
